Our source for the Km values is ChEMBL document CHEMBL5257037, “Side Chain Cyclized Aromatic Amino Acids: Great Tools as Local Constraints in Peptide and Peptidomimetic Design” (J Med Chem, 2016).

Substrate in this data set: CC[C@H](C)[C@H](NC(=O)[C@H](Cc1cnc[nH]1)NC(=O)[C@H](Cc1ccccc1)NC(=O)OCc1ccccc1)C(=O)O
Put plainly: Binding affinity to angiotensin-converting enzyme (unknown origin) assessed as Km. The following applies: Homo sapiens.

B1: Angiotensin-converting enzyme (Homo sapiens), P12821 (protein)
chain: MGAASGRRGPGLLLPLPLLLLLPPQPALALDPGLQPGNFSADEAGAQLFAQSYNSSAEQVLFQSVAASWAHDTNITAENARRQEEAALLSQEFAEAWGQKAKELYEPIWQNFTDPQLRRIIGAVRTLGSANLPLAKRQQYNALLSNMSRIYSTAKVCLPNKTATCWSLDPDLTNILASSRSYAMLLFAWEGWHNAAGIPLKPLYEDFTALSNEAYKQDGFTDTGAYWRSWYNSPTFEDDLEHLYQQLEPLYLNLHAFVRRALHRRYGDRYINLRGPIPAHLLGDMWAQSWENIYDMVVPFPDKPNLDVTSTMLQQGWNATHMFRVAEEFFTSLELSPMPPEFWEGSMLEKPADGREVVCHASAWDFYNRKDFRIKQCTRVTMDQLSTVHHEMGHIQYYLQYKDLPVSLRRGANPGFHEAIGDVLALSVSTPEHLHKIGLLDRVTNDTESDINYLLKMALEKIAFLPFGYLVDQWRWGVFSGRTPPSRYNFDWWYLRTKYQGICPPVTRNETHFDAGAKFHVPNVTPYIRYFVSFVLQFQFHEALCKEAGYEGPLHQCDIYRSTKAGAKLRKVLQAGSSRPWQEVLKDMVGLDALDAQPLLKYFQPVTQWLQEQNQQNGEVLGWPEYQWHPPLPDNYPEGIDLVTDEAEASKFVEEYDRTSQVVWNEYAEANWNYNTNITTETSKILLQKNMQIANHTLKYGTQARKFDVNQLQNTTIKRIIKKVQDLERAALPAQELEEYNKILLDMETTYSVATVCHPNGSCLQLEPDLTNVMATSRKYEDLLWAWEGWRDKAGRAILQFYPKYVELINQAARLNGYVDAGDSWRSMYETPSLEQDLERLFQELQPLYLNLHAYVRRALHRHYGAQHINLEGPIPAHLLGNMWAQTWSNIYDLVVPFPSAPSMDTTEAMLKQGWTPRRMFKEADDFFTSLGLLPVPPEFWNKSMLEKPTDGREVVCHASAWDFYNGKDFRIKQCTTVNLEDLVVAHHEMGHIQYFMQYKDLPVALREGANPGFHEAIGDVLALSVSTPKHLHSLNLLSSEGGSDEHDINFLMKMALDKIAFIPFSYLVDQWRWRVFDGSITKENYNQEWWSLRLKYQGLCPPVPRTQGDFDPGAKFHIPSSVPYIRYFVSFIIQFQFHEALCQAAGHTGPLHKCDIYQSKEAGQRLATAMKLGFSRPWPEAMQLITGQPNMSASAMLSYFKPLLDWLRTENELHGEKLGWPQYNWTPNSARSEGPLPDSGRVSFLGLDLDAQQARVGQWLLLFLGIALLVATLGLSQRLFSIRHRSLHRHSHGPQFGSEVELRHS
As to B1, the Km is 0.01 µM.

Broadly, the Km is the concentration of substrate that gives half-maximal velocity.
